B1: Protein Vpx (Human immunodeficiency virus type 2 subtype A (isolate Ghana-1)), P18045 (parent)
chain: MTDPRERVPPGNSGEETIGEAFEWLDRTIEALNREAVNHLPRELIFQVWQRSWRYWHDDQGMSPSYTKYRYLCLMQKAVFIHFKRGCTCLGGGHGPGGWRSGPPPPPPPGLV
B2: Protein Vpx (Simian immunodeficiency virus (isolate PBj14/BCL-3)), P19508 (parent)
chain: MSDPRERIPPGNSGEETIGEAFDWLDRTVEEINRAAVNHLPRELIFQVWRRSWEYWHDEMGMSVSYTKYRYLCLIQKAMFMHCKKGCRCLGGEHGAGGWRPGPPPPPPPGLA

Variants of: B1
Details: with dcaf1_human DCAF1, Q9Y4B6
Target sequence in this assay (Q9Y4B6 whole entry): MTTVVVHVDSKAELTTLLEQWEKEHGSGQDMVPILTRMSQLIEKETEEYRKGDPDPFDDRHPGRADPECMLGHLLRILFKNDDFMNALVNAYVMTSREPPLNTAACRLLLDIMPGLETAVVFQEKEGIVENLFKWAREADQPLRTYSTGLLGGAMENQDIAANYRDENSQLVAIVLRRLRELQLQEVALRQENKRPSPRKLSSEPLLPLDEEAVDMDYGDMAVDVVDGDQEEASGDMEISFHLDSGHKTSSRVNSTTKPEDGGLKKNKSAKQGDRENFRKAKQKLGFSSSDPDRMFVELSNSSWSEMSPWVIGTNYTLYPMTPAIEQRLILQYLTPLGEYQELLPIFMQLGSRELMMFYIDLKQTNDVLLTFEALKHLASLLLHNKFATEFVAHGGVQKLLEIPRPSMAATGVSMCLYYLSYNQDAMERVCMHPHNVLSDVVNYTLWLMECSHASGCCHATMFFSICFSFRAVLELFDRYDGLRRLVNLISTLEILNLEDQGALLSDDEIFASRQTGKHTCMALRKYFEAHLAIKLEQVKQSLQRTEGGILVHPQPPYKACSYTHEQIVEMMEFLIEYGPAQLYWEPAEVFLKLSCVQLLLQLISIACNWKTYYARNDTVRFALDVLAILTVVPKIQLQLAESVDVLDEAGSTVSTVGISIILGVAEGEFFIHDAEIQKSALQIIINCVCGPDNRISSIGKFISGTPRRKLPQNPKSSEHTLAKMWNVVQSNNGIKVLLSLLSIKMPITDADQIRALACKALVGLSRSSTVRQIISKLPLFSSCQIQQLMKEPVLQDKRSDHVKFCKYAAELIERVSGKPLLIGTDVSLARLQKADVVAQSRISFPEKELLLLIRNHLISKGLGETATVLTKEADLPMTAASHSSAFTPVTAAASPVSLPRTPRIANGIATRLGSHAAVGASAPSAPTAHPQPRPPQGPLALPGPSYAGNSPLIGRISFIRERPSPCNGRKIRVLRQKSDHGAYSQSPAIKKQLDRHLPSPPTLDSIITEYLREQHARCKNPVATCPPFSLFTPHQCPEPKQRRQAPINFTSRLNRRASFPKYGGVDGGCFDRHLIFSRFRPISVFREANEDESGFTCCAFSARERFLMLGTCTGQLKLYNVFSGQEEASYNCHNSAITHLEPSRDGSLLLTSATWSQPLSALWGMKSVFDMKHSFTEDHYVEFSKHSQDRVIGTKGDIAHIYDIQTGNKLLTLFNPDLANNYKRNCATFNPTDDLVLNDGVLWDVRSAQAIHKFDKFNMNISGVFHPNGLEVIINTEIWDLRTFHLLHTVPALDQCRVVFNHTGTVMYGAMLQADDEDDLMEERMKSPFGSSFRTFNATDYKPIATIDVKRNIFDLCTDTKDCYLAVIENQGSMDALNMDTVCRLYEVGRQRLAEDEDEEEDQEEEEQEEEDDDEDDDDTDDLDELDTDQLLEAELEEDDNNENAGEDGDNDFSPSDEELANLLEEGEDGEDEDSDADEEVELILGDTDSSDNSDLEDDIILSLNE

| Variant | effect of a mutation on the interaction |
| --- | --- |
| MTDPRERVPPGNSGEETIGEAFEWLDRTIEALNREAVNHLPRELIFQVWQRSWRYWHDDQGMSPSYTKYRYLCLMRKAVFIHFKRGCTCLGGGHGPGGWRSGPPPPPPPGLV | disrupting interaction |

Variants of: B2
Details: with dcaf1_human DCAF1, Q9Y4B6
Target sequence in this assay (Q9Y4B6 whole entry): as the sequence (Q9Y4B6 whole entry) above

| Variant | effect of a mutation on the interaction |
| --- | --- |
| MSDPRERIPPGNSGEETIGEAFDWLDRTVEEINRAAVNHLPRELIFQVWRRSWEYWHDEMGMSVSYTKYRYLCLIRKAMFMHCKKGCRCLGGEHGAGGWRPGPPPPPPPGLA | disrupting interaction |

Variants of: B2
Details: with dcaf1_human DCAF1, Q9Y4B6
Remark: another data set of the same source
Target sequence in this assay (Q9Y4B6 whole entry): as the sequence (Q9Y4B6 whole entry) above

| Variant | effect of a mutation on the interaction |
| --- | --- |
| MSDPRERIPPGNSGEETIGEAFDWLDRTVEEINRAAVNHLPRELIFQVWRRSWEYWHDEMGMSVSYTKYRYLCLIQAAMFMHCKKGCRCLGGEHGAGGWRPGPPPPPPPGLA | disrupting interaction |

— IntAct's records for PubMed 19264781
